Substitutions are numbered along the chain they refer to.
Molecular target: T1, human IL-1α (human, UniProt P01583 113-271)
T1 construct: also called IL-1alpha; hIL-1α
T1 sequence (looked up): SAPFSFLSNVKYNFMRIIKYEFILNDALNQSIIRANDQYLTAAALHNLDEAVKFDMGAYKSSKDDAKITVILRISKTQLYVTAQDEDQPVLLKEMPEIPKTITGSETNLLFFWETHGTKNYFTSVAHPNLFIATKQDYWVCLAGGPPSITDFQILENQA
Test: Table 62 IC50; RBA presumed

B1: ABT1-157 (other)
VL: DIQMTQSPSSLSASVGDRVTITCRASQSISSYLNWYQQKPGKAPKLLIGGVSGLQSGVPSRFSGSGSGTDFTLTISSLQPEDFATYYCMQWSRPPRTFGQGTKVEIKR
notes: VK dAb
How did the IC50 turn out when B1 was run?
Its IC50 is 300 nM.

B2: ABT1-168 (other)
VL: B1 VL with V51L, M89L, S92F, R93S, P94E, R96A
notes: VK dAb
Which IC50 does the source give for B2 here?
Its IC50 is greater than 1000 nM.

B3: ABT1-166 (other)
VL: B1 VL with V51L, M89G, S92A, P94A, R96M
notes: VK dAb
For B3, which IC50 is on record?
Its IC50 is greater than 1000 nM.

B4: ABT1-170 (other)
VL: B1 VL with V51R, M89K, S92Y, P94Y, R96S
notes: VK dAb
For B4, which IC50 is on record?
The IC50 was greater than 1000 nM.

B5: ABT1-167 (other)
VL: B1 VL with V51L, S92W, P94Y, R96P
notes: VK dAb
How did the IC50 turn out when B5 was run?
The IC50 was greater than 1000 nM.

B6: ABT1-171 (other)
VL: B1 VL with V51R, S92F
notes: VK dAb
B6 was tested. Which IC50 did it give?
The IC50 was greater than 1000 nM.

B7: ABT1-95-83 (other)
VL: DIQMTQSPSSLSASVGDRVTITCRASQPIVRNLRWYQQKPGKAPKLLIYSSSYLEPGVPPRFSGSGSGTDFTLTISSLQPEDFATYHCQQGYRWPVTFGQGTKVEIKR
notes: VK dAb
B7 was tested. Which IC50 did it give?
Its IC50 is 0.2 nM.

B8: ABT1-141-54 (other)
VL: DIQMTQSPSSLSASVGDRVTITCRASQWIQKQLAWYQQKPGKAPKLLIYSSSHLQSGVPSRFSGSGSGTDFTLTISSLQPEDFATYYCQQHLRVPMTFGQGTKVEIKR
notes: VK dAb
B8 was tested. Which IC50 did it give?
The IC50 was 3 nM.

B9: ABT1-95-145 (other)
VL: B7 VL with R18H, E55V, P60S
notes: VK dAb
With B9 as the binder, how does the IC50 read?
The IC50 was 0.8 nM.

B10: ABT1-95-159 (other)
VL: B7 VL with V30A, P60S, G91V
notes: VK dAb
For B10, which IC50 is on record?
Its IC50 is 0.1 nM.

B11: ABT1-154 (other)
VL: DIQMTQSPSSLSASVGDRVTITCRASTEIVRNLRWYQQKPGKAPKLLISGVSGLQSGVPSRFSGSGSGTDFTLTISSLQPEDFATYYCVQGYSWPVTFGQGTKVEIKR
notes: VK dAb
B11 was tested. Which IC50 did it give?
Its IC50 is greater than 1000 nM.

B12: ABT1-95-110 (other)
VL: B7 VL with P56A, P60S
notes: VK dAb
B12 was tested. Which IC50 did it give?
The IC50 was 0.1 nM.

B13: ABT1-95-89 (other)
VL: B7 VL with Y53L, P60S
notes: VK dAb
How did the IC50 turn out when B13 was run?
The IC50 was 0.3 nM.

B14: ABT1-95-126 (other)
VL: B7 VL with P60S, V96S
notes: VK dAb
With B14 as the binder, how does the IC50 read?
The IC50 was 0.8 nM.

B15: ABT1-95-158 (other)
VL: B7 VL with Y49F, P60S
notes: VK dAb
Which IC50 does the source give for B15 here?
The IC50 was 0.5 nM.

B16: ABT1-95-114 (other)
VL: B7 VL with P56V, P60S
notes: VK dAb
How did the IC50 turn out when B16 was run?
Its IC50 is 0.2 nM.

B17: ABT1-95-147 (other)
VL: B7 VL with R24W, P28G, P60S
notes: VK dAb
With B17 as the binder, how does the IC50 read?
The IC50 was 0.2 nM.

B18: ABT1-95-95 (other)
VL: B7 VL with T5I, Y53Q, P60S
notes: VK dAb
For B18, which IC50 is on record?
The IC50 was 0.3 nM.

B19: ABT1-95-124 (other)
VL: B7 VL with P60S, R93M
notes: VK dAb
For B19, which IC50 is on record?
Its IC50 is 0.2 nM.

B20: ABT1-95-143 (other)
VL: B7 VL with Y49T, P60S
notes: VK dAb
With B20 as the binder, how does the IC50 read?
Its IC50 is 10 nM.

B21: ABT1-95-123 (other)
VL: B7 VL with P60S, R93A
notes: VK dAb
How did the IC50 turn out when B21 was run?
The IC50 was 0.1 nM.

B22: ABT1-95-130 (other)
VL: B7 VL with P60S, H87Y, R93L
notes: VK dAb
B22 was tested. Which IC50 did it give?
The IC50 was greater than 1 nM.

B23: ABT1-95-101 (other)
VL: B7 VL with I48V, Y53L, P60S
notes: VK dAb
Which IC50 does the source give for B23 here?
The IC50 was 0.5 nM.

B24: ABT1-141-35 (other)
VL: B8 VL with S51A, H53W
notes: VK dAb
Which IC50 does the source give for B24 here?
Its IC50 is 10 nM.

B25: ABT1-141-27 (other)
VL: B8 VL with H53Y, H91G, V94Q
notes: VK dAb
Which IC50 does the source give for B25 here?
The IC50 was 20 nM.

B26: ABT1-95-120 (other)
VL: B7 VL with V30A, P60S, G91V
notes: VK dAb
Which IC50 does the source give for B26 here?
The IC50 was 0.1 nM.

B27: ABT1-160 (other)
VL: B11 VL with K45N, S49W, V51G, G53T, W94L
notes: VK dAb
How did the IC50 turn out when B27 was run?
Its IC50 is 300 nM.

B28: ABT1-95-112 (other)
VL: B7 VL with P56N, P60S
notes: VK dAb
Which IC50 does the source give for B28 here?
The IC50 was 0.1 nM.

B29: ABT1-95-90 (other)
VL: B7 VL with Y53Q, P60S
notes: VK dAb
B29 was tested. Which IC50 did it give?
Its IC50 is 0.5 nM.

B30: ABT1-131 (other)
VL: DIQMTQSPSSLSASVGDRVTITCRASQRINGNLRWYQQKPGKAPKLLIYSVSQLQSGVPSRFSGSGSGTDFTLTISSLQPEDFATYYCQQGYDWPPTFGQGTKVETKR
notes: VK dAb
For B30, which IC50 is on record?
Its IC50 is 80 nM.

B31: ABT1-95-94 (other)
VL: B7 VL with Y53S, P60S
notes: VK dAb
With B31 as the binder, how does the IC50 read?
Its IC50 is 0.1 nM.

B32: ABT1-95-150 (other)
VL: B7 VL with P28H, P60S
notes: VK dAb
With B32 as the binder, how does the IC50 read?
The IC50 was 0.2 nM.

B33: ABT1-95-125 (other)
VL: B7 VL with P60S, V96L
notes: VK dAb
With B33 as the binder, how does the IC50 read?
The IC50 was 0.2 nM.

B34: ABT1-95-153 (other)
VL: B7 VL with V30I, P60S, D70G
notes: VK dAb
For B34, which IC50 is on record?
Its IC50 is 0.5 nM.

B35: ABT1-95-151 (other)
VL: B7 VL with S26G, P60S, G99D
notes: VK dAb
For B35, which IC50 is on record?
The IC50 was 0.2 nM.

B36: ABT1-95-157 (other)
VL: B7 VL with Y49T, P60S, T69A
notes: VK dAb
How did the IC50 turn out when B36 was run?
Its IC50 is 10 nM.

B37: ABT1-95-127 (other)
VL: B7 VL with P60S, S76G, V96I
notes: VK dAb
How did the IC50 turn out when B37 was run?
Its IC50 is 0.1 nM.

B38: ABT1-141-10 (other)
VL: B8 VL with H53Y, H91S, M96F
notes: VK dAb
For B38, which IC50 is on record?
Its IC50 is 30 nM.

B39: ABT1-95-142 (other)
VL: B7 VL with V30T, P60S
notes: VK dAb
B39 was tested. Which IC50 did it give?
The IC50 was 0.5 nM.

B40: ABT1-95-144 (other)
VL: B7 VL with E55S, P60S
notes: VK dAb
With B40 as the binder, how does the IC50 read?
The IC50 was 0.5 nM.

B41: ABT1-95-129 (other)
VL: B7 VL with P60S, Q79H, F83L
notes: VK dAb
With B41 as the binder, how does the IC50 read?
The IC50 was greater than 10 nM.

B42: ABT1-95-156 (other)
VL: B7 VL with Y49A, P60S, Q89L
notes: VK dAb
For B42, which IC50 is on record?
Its IC50 is 10 nM.

B43: ABT1-95-106 (other)
VL: B7 VL with P56R, P60S, T97A
notes: VK dAb
With B43 as the binder, how does the IC50 read?
The IC50 was 0.1 nM.

B44: ABT1-95-111 (other)
VL: B7 VL with P56D, P60S
notes: VK dAb
For B44, which IC50 is on record?
The IC50 was less than 0.1 nM.

B45: ABT1-95-108 (other)
VL: B7 VL with P56E, P60S
notes: VK dAb
With B45 as the binder, how does the IC50 read?
Its IC50 is 0.5 nM.

B46: ABT1-95-154 (other)
VL: B7 VL with Y49S, P60S
notes: VK dAb
Which IC50 does the source give for B46 here?
The IC50 was greater than 10 nM.

B47: ABT1-95-155 (other)
VL: B7 VL with Y49T, P60S, F83S
notes: VK dAb
Which IC50 does the source give for B47 here?
The IC50 was 10 nM.

B48: ABT1-95-96 (other)
VL: B7 VL with T22A, Y53R, P60S
notes: VK dAb
How did the IC50 turn out when B48 was run?
Its IC50 is 0.1 nM.

B49: ABT1-95-98 (other)
VL: B7 VL with Y53A, P60S
notes: VK dAb
With B49 as the binder, how does the IC50 read?
Its IC50 is 0.8 nM.

B50: ABT1-95-141 (other)
VL: B7 VL with V30L, P60S
notes: VK dAb
B50 was tested. Which IC50 did it give?
The IC50 was 1 nM.

B51: ABT1-95-87 (other)
VL: B7 VL with Y53R, P60S
notes: VK dAb
B51 was tested. Which IC50 did it give?
Its IC50 is 0.2 nM.

B52: ABT1-95-140 (other)
VL: B7 VL with P28G, P60S
notes: VK dAb
B52 was tested. Which IC50 did it give?
The IC50 was 0.2 nM.

B53: ABT1-95-128 (other)
VL: B7 VL with P60S, V96G
notes: VK dAb
B53 was tested. Which IC50 did it give?
The IC50 was greater than 1 nM.

B54: ABT1-95-146 (other)
VL: B7 VL with P28N, P60S
notes: VK dAb
Which IC50 does the source give for B54 here?
The IC50 was 0.8 nM.

B55: ABT1-95-91 (other)
VL: B7 VL with Y53N, P60S
notes: VK dAb
For B55, which IC50 is on record?
The IC50 was 0.3 nM.

B56: ABT1-95-93 (other)
VL: B7 VL with Y53I, P60S, S65G
notes: VK dAb
B56 was tested. Which IC50 did it give?
Its IC50 is 0.1 nM.

B57: ABT1-95-152 (other)
VL: B7 VL with S26G, V30P, P60S
notes: VK dAb
How did the IC50 turn out when B57 was run?
Its IC50 is 0.8 nM.

B58: ABT1-137 (other)
VH: EVQLLESGGGLVQPGGSLRLSCAASGFTFERYWMAWVRQAPGKGLEWVSNINLTGSATYYADSVKGRFTISRDNSKNTLYLQMNSLRAEDTAVYYCAKGAFQFDYWGQGTLVTVSS
notes: VH dAb
For B58, which IC50 is on record?
The IC50 was 200 nM.
